Measurements published in patent publication US20250084174A1 (AstraZeneca / MedImmune, published 2025).
Like-named read-outs stand apart in the source and are kept apart here. Blank lines part the entries; values can stand above or below the binder they belong to.

Tests used:
cynomolgus CCR9 [1] = molecular target: T1, cynomolgus CCR9 (cynomolgus, UniProt Q0H741 1-369); assay: cell-based or functional assay
T1 sequence: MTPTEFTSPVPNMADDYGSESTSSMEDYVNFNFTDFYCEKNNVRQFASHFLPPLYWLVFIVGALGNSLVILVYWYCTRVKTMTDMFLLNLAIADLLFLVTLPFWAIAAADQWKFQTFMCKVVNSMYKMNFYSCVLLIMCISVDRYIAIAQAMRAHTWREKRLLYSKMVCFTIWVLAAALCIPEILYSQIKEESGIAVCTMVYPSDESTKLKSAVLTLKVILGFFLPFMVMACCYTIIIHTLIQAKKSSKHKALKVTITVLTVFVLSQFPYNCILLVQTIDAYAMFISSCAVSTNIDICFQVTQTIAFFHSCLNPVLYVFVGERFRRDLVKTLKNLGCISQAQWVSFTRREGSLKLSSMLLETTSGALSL

CXCR2 = molecular target: T2, CXCR2 (UniProt P25025 1-360, limits assumed); assay: binding to cells expressing CXCR2, fluorescence counts (FL1 Counts) against Log M
T2 construct: whole, on cells; The cell line is not described
T2 sequence (looked up): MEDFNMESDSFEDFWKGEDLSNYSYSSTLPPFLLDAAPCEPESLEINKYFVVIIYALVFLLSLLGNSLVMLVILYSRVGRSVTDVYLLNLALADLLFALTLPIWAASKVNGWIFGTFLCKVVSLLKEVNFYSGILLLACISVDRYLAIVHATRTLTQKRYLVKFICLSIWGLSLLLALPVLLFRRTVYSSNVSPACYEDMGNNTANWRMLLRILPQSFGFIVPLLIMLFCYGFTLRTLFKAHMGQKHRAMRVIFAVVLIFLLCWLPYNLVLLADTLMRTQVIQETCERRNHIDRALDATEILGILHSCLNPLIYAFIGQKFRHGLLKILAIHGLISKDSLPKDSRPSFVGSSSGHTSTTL

CXCR1 = molecular target: T3, CXCR1 (UniProt P25024 1-350, limits assumed); assay: binding to cells expressing CXCR1, fluorescence counts (FL1 Counts) against Log M
T3 construct: whole, on cells; The cell line is not described
T3 sequence (looked up): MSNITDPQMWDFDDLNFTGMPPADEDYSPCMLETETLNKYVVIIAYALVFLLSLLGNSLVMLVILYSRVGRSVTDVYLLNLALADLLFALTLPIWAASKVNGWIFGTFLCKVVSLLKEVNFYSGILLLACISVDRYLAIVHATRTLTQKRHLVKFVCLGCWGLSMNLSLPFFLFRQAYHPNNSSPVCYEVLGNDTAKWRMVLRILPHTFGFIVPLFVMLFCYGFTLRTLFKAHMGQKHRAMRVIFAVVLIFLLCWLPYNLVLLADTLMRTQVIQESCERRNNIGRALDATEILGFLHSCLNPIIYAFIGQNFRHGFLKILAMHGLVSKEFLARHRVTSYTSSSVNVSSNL

CCR8 [2] = molecular target: T4, CCR8 (UniProt P51685 1-355, limits assumed); assay: binding to cells expressing CCR8, fluorescence counts (FL1 Counts) against Log M
T4 construct: whole, on cells; The cell line is not described
T4 sequence (P51685 whole entry): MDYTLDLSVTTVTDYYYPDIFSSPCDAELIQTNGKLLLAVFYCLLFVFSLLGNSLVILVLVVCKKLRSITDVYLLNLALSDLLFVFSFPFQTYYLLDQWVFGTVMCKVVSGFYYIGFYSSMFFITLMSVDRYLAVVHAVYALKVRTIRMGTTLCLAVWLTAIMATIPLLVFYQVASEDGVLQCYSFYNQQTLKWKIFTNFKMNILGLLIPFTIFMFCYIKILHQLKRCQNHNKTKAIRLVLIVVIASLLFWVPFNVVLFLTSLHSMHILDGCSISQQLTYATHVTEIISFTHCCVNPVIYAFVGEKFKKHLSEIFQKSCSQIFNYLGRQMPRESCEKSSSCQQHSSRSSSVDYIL

human CCR9B [3] = molecular target: T5, human CCR9B (human, UniProt P51686 13-369); assay: binding to cells expressing human CCR9B, fluorescence counts (FL1 Counts) against Log M
T5 construct: Overexpressed on HEK cells; also called Hu B HEK; hCCR9 isoform B
T5 sequence: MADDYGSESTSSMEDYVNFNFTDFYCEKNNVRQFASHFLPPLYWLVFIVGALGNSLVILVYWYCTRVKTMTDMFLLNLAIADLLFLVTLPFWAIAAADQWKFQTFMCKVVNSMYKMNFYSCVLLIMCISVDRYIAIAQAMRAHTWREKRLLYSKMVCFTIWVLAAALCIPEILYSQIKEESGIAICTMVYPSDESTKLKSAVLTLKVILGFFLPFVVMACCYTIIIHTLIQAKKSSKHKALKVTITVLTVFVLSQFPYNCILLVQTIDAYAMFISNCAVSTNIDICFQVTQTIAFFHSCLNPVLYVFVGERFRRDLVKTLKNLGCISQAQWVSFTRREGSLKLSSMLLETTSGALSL

human CCR9A [4] = molecular target: T6, human CCR9A (human, UniProt P51686 1-369); assay: binding to cells expressing human CCR9A, fluorescence counts (FL1 Counts) against Log M
T6 construct: Overexpressed on HEK cells; also called Hu A HEK; hCCR9 isoform A
T6 sequence: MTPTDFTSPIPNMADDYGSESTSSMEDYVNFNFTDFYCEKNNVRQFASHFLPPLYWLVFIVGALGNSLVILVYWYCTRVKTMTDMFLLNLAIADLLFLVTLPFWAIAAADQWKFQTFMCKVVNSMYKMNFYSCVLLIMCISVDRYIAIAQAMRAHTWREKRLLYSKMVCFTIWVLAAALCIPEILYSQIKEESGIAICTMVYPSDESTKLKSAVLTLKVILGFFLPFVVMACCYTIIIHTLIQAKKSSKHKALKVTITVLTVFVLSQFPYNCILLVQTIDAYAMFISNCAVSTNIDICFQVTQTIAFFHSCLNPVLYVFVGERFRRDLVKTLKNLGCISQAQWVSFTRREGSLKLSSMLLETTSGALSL

CCR5 [5] = molecular target: T7, CCR5 (UniProt P51681 1-352, limits assumed); assay: binding to cells expressing CCR5, fluorescence counts (FL1 Counts) against Log M
T7 construct: whole, on cells; The cell line is not described
T7 sequence (P51681 whole entry): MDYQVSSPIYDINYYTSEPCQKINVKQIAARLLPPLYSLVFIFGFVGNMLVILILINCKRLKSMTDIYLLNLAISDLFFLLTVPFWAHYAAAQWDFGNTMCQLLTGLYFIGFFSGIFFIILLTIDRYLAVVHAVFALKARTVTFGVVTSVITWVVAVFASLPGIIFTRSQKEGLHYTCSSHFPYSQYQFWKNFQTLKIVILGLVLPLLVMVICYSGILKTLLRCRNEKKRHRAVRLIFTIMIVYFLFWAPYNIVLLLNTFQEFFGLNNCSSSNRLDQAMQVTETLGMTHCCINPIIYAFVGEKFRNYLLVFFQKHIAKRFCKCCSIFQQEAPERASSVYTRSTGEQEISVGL

rat CCR9 [6] = molecular target: T8, rat CCR9 (rat, UniProt Q8CH33 1-369); assay: cell binding by the methods of Example 4
T8 construct: Overexpressed on HEK cells; also called Rat HEK
T8 sequence: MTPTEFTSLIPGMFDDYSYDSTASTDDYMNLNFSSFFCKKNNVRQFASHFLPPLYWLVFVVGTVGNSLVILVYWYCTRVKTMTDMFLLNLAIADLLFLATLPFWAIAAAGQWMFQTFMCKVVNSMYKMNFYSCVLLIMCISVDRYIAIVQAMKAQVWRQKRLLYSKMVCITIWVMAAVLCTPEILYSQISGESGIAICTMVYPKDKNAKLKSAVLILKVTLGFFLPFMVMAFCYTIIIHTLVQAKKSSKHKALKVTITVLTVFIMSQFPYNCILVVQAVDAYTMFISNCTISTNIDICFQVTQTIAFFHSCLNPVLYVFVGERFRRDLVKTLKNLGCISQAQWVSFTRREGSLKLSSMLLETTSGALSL

mouse CCR9 [7] = molecular target: T9, mouse CCR9 (mouse, UniProt Q9WUT7 1-369); assay: cell binding by the methods of Example 4
T9 construct: whole, on cells; Overexpressed on HEK cells; also called mCCR9; Mouse HEK
T9 sequence (looked up): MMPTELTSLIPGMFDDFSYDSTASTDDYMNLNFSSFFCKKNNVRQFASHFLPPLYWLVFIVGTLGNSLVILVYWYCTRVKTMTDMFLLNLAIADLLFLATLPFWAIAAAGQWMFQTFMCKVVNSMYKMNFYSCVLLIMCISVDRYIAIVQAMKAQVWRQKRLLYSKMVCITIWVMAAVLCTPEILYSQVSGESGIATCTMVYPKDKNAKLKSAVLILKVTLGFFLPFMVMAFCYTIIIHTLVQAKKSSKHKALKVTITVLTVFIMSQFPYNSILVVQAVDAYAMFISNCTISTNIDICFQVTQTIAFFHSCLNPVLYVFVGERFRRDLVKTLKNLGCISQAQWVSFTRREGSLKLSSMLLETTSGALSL

CCR8 [8] = molecular target: T4, CCR8; assay: binding to cells expressing CCR8, fluorescence counts (FL1 Counts) against Log M; remark: listed apart in the source
CCR5 [9] = molecular target: T7, CCR5; assay: binding to cells expressing CCR5, fluorescence counts (FL1 Counts) against Log M; remark: listed apart in the source
cynomolgus CCR9 [10] = molecular target: T1, cynomolgus CCR9; assay: binding to HEK cells expressing cynomolgus CCR9, fluorescence counts (FL1 Counts) against Log M
human CCR9B [11] = molecular target: T5, human CCR9B; assay: binding to HEK cells overexpressing human CCR9B, MFI against [Ab] ug/ml; Parental HEK stays at about 0
Experimental: (§1) The antibody AB1020243 (hybridoma mIgG) was also tested for binding to different forms of CCR9. Briefly, test antibody was diluted to a concentration of 60 μg/mL in assay buffer containing Hanks Balanced Salt solution (Sigma HB264) plus 0.1% Bovine Serum Albumin (Sigma A9576). Antibody was titrated in duplicate using single fold titrations over 24 points on a 384 black clear bottomed, non-binding microplate (Corning® NBS™ 3655) so that the final volume of test antibody was 10 μL per well. […]
(§2) Transfected HEK CCR9 overexpressing cell lines or un-transfected parental control cells were suspended in assay buffer at a concentration of 1×10⁶ cells per ml, and 10 μL of cells were dispensed to the assay plate containing test antibody and secondary antibody using a Multidrop dispenser (Thermo Scientific). Assay plates were incubated overnight at 4° C. and were read on a mirrorball® (laser scanning fluorescence cytometer; TTP-Labtech) using excitation at 488 nm and emission using the FL4channel (667-685 nm). Data was plotted in GraphPad Prism version 8.0.0 for Windows (GraphPad Software, San Diego, California USA) and expressed as Log (mg/mL antibody) v's Fluorescence (FL4) counts.

rat CCR9 [12] = molecular target: T8, rat CCR9; assay: binding to HEK cells overexpressing rat CCR9, MFI against [Ab] ug/ml
Experimental: as §1, §2

human CCR9A [13] = molecular target: T6, human CCR9A; assay: binding to HEK cells overexpressing human CCR9A, MFI against [Ab] ug/ml; Parental HEK stays at about 0
Experimental: as §1, §2

mouse CCR9 [14] = molecular target: T9, mouse CCR9; assay: binding to HEK cells overexpressing mouse CCR9, MFI against [Ab] ug/ml
Experimental: as §1, §2

binding result (rat CCR9 [6]): no binding
binding result (mouse CCR9 [7]): no binding
B2: AB243LO0331 (antibody, IgG1, V domains shown)
VH: QVQLVQSGAEVKKPGASVKVSCKASGYTFTSYWMHWVRQAPGQGLEWIGVIYPGNSDTRYNQKFKGRVTITRDTSASTAYMELSSLRSEDTAVYYCTRDYYSNYVYYYAMDYWGQGTTVTVSS
VL: DIVMTQTPLSLPVTPGEPASISCRSSQSLVHSNTNTYLHWYLQKPGQSPQLLIYKVSNRFSGVPDRFSGSGSGTDFTLKISRVEAEDVGVYYCSQSTHVPWTFGQGTKLEIK
modifications: afucosylated form

EC50 (read off the curve) (cynomolgus CCR9 [10]): ~0.6 nM
B3: AB1020243 afuc (chimeric parent antibody, afucosylated) (antibody, V domains shown)
VH: EVQLQQSGTVLARPGASVKMSCKASGYTFTSYWMHWVKQRPGQGLEWIGVIYPGNSDTRYNQKFKGKAKLTAVTSATTAYMELSSLTNEDSAVYYCTRDYYSNYVYYYAMDYWGQGTSVTVSS
VL: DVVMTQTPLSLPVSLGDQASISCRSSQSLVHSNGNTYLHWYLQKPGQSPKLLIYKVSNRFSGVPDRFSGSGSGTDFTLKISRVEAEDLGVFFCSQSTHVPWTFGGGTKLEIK
modifications: afucosylated form; in the LigandTracer assay DyLight 650 Maleimide on an engineered cysteine residue in the CH2 region
notes: Mouse variable domains; Called chimeric, with human IgG1 format stated for the LigandTracer assay; also called chimeric AB1020243; parent AB1020243
binding result (CCR8 [8]): no binding (tested: Log M about -6.5 (about 3e-7 M))
binding result (CXCR2): no binding (tested: Log M about -6.9 (about 1e-7 M))
binding result (CCR5 [9]): no binding (tested: Log M about -6.5 (about 3e-7 M))
binding result (CXCR1): no binding (tested: Log M about -6.9 (about 1e-7 M))

More lines, now with the values behind:

B1: AB243LO0326 (antibody, V domains shown)
VH: QVQLVQSGAEVKKPGASVKVSCKASGYTFTSYWMHWVRQAPGQGLEWIGVIYPGNSDTRYNQKFKGRVTITRDTSASTAYMELSSLRSEDTAVYYCTRDYYSNYVYYYAMDYWGQGTTVTVSS
VL: DIVMTQTPLSLPVTPGEPASISCRSSQSLVHPNRNTYLHWYLQKPGQSPQLLIYKVSNRFSGVPDRFSGSGSGTDFTLKISRVEAEDVGVYYCSQSTHVPWTFGQGTKLEIK
modifications: afucosylated form; in the LigandTracer assay DyLight 650 Maleimide on an engineered cysteine residue in the CH2 region
notes: Full chains are not tied to the tested lot
EC50, killing of cynomolgus CD4+CCR9+ PBMC (cynomolgus CCR9 [1]): 0.03 nM
binding result (CXCR2): no binding (tested: Log M about -6.9 (about 1e-7 M))
binding result (CXCR1): no binding (tested: Log M about -6.9 (about 1e-7 M))
binding result (CCR8 [2]): no binding (tested: Log M about -6.9 (about 1e-7 M))
binding result (human CCR9B [3]): binds
binding result (human CCR9A [4]): binds
binding result (CCR5 [5]): no binding (tested: Log M about -6.9 (about 1e-7 M))
binding result (rat CCR9 [6]): no binding
binding result (mouse CCR9 [7]): no binding

B4: AB1020243 (hybridoma mIgG) (antibody, V domains shown)
VH: EVQLQQSGTVLARPGASVKMSCKASGYTFTSYWMHWVKQRPGQGLEWIGVIYPGNSDTRYNQKFKGKAKLTAVTSATTAYMELSSLTNEDSAVYYCTRDYYSNYVYYYAMDYWGQGTSVTVSS
VL: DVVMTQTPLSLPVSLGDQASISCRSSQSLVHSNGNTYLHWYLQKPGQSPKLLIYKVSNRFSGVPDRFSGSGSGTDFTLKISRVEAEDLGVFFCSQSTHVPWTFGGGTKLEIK
notes: Mouse IgG from the hybridoma; also called clone ZY10O1-A02
binding result (human CCR9B [11]): binds
binding result (rat CCR9 [12]): no binding (tested: 10 ug/ml)
binding result (human CCR9A [13]): binds
binding result (mouse CCR9 [14]): no binding (tested: 10 ug/ml)
